B1: GST-CTD (residues 372–636) (domain or fragment, UniProt P11940 372-636, looked up)
chain: EERQAHLTNQYMQRMASVRAVPNPVINPYQPAPPSGYFMAAIPQTQNRAAYYPPSQIAQLRPSPRWTAQGARPHPFQNMPGAIRPAAPRPPFSTMRPASSQVPRVMSTQRVANTSTQTMGPRPAAAAAAATPAVRTVPQYKYAAGVRNPQQHLNAQPQVTMQQPAVHVQGQEPLTASMLASAPPQEQKQMLGERLFPLIQAMHPTLAGKITGMLLEIDNSELLHMLESPESLRSKVDEAVAVLQAHQAKEAAQKAVNSATGVPTV
B2: Flag-C (372–636) (domain or fragment, UniProt P11940 372-636, looked up)
chain: B1 chain
B3: His-PABP 4EA mutant-Flag (natural protein, UniProt P11940 2-636, looked up)
chain: NPSAPSYPMASLYVGDLHPDVTEAMLYEKFSPAGPILSIRVCRDMITRRSLGYAYVNFQQPADAERALDTMNFDVIKGKPVRIMWSQRDPSLRKSGVGNIFIKNLDKSIDNKALYDTFSAFGNILSCKVVCDENGSKGYGFVHFETQEAAERAIEKMNGMLLNDRKVFVGRFKSRKARAAALGARAKAFTNVYIKNFGEDMDDERLKDLFGKFGPALSVKVMTDESGKSKGFGFVSFERHEDAQKAVDEMNGKELNGKQIYVGRAQKKVERQTELKRKFEQMKQDRITRYQGVNLYVKNLDDGIDDERLRKEFSPFGTITSAKVMMEGGRSKGFGFVCFSSPEEATKAVTEMNGRIVATKPLYVALAQRKEERQAHLTNQYMQRMASVRAVPNPVINPYQPAPPSGYFMAAIPQTQNRAAYYPPSQIAQLRPSPRWTAQGARPHPFQNMPGAIRPAAPRPPFSTMRPASSQVPRVMSTQRVANTSTQTMGPRPAAAAAAATPAVRTVPQYKYAAGVRNPQQHLNAQPQVTMQQPAVHVQGQEPLTASMLASAPPQEQKQMLGERLFPLIQAMHPTLAGKITGMLLEIDNSELLHMLESPESLRSKVDEAVAVLQAHQAKEAAQKAVNSATGVPTV
B4: Flag-1–2–3–4 (2–371) (domain or fragment, UniProt P11940 2-371, looked up)
chain: NPSAPSYPMASLYVGDLHPDVTEAMLYEKFSPAGPILSIRVCRDMITRRSLGYAYVNFQQPADAERALDTMNFDVIKGKPVRIMWSQRDPSLRKSGVGNIFIKNLDKSIDNKALYDTFSAFGNILSCKVVCDENGSKGYGFVHFETQEAAERAIEKMNGMLLNDRKVFVGRFKSRKEREAELGARAKEFTNVYIKNFGEDMDDERLKDLFGKFGPALSVKVMTDESGKSKGFGFVSFERHEDAQKAVDEMNGKELNGKQIYVGRAQKKVERQTELKRKFEQMKQDRITRYQGVNLYVKNLDDGIDDERLRKEFSPFGTITSAKVMMEGGRSKGFGFVCFSSPEEATKAVTEMNGRIVATKPLYVALAQRK
B5: Flag-linker2-RRM3 (176–299) (domain or fragment, UniProt P11940 176-299, looked up)
chain: RKEREAELGARAKEFTNVYIKNFGEDMDDERLKDLFGKFGPALSVKVMTDESGKSKGFGFVSFERHEDAQKAVDEMNGKELNGKQIYVGRAQKKVERQTELKRKFEQMKQDRITRYQGVNLYVK
B6: GST-RRM2-3 (residues 97–299) (domain or fragment, UniProt P11940 97-299, looked up)
chain: GVGNIFIKNLDKSIDNKALYDTFSAFGNILSCKVVCDENGSKGYGFVHFETQEAAERAIEKMNGMLLNDRKVFVGRFKSRKEREAELGARAKEFTNVYIKNFGEDMDDERLKDLFGKFGPALSVKVMTDESGKSKGFGFVSFERHEDAQKAVDEMNGKELNGKQIYVGRAQKKVERQTELKRKFEQMKQDRITRYQGVNLYVK
B7: Flag-2–3 (97–299) (domain or fragment, UniProt P11940 97-299, looked up)
chain: B6 chain
B8: Flag-1–2–3 (2–299) (domain or fragment, UniProt P11940 2-299, looked up)
chain: NPSAPSYPMASLYVGDLHPDVTEAMLYEKFSPAGPILSIRVCRDMITRRSLGYAYVNFQQPADAERALDTMNFDVIKGKPVRIMWSQRDPSLRKSGVGNIFIKNLDKSIDNKALYDTFSAFGNILSCKVVCDENGSKGYGFVHFETQEAAERAIEKMNGMLLNDRKVFVGRFKSRKEREAELGARAKEFTNVYIKNFGEDMDDERLKDLFGKFGPALSVKVMTDESGKSKGFGFVSFERHEDAQKAVDEMNGKELNGKQIYVGRAQKKVERQTELKRKFEQMKQDRITRYQGVNLYVK
B9: Flag-Linker (372–543) (domain or fragment, UniProt P11940 372-543, looked up)
chain: EERQAHLTNQYMQRMASVRAVPNPVINPYQPAPPSGYFMAAIPQTQNRAAYYPPSQIAQLRPSPRWTAQGARPHPFQNMPGAIRPAAPRPPFSTMRPASSQVPRVMSTQRVANTSTQTMGPRPAAAAAAATPAVRTVPQYKYAAGVRNPQQHLNAQPQVTMQQPAVHVQGQE

What was measured:
[1] = molecular target: B2; assay: co-IP
[2] = molecular target: His-PABP WT-Flag (UniProt P11940 2-636); assay: co-IP
[3] = molecular target: GST-PABP WT (UniProt P11940 1-636); assay: co-IP
[4] = molecular target: the molecule itself; assay: SEC
[5] = molecular target: B6; assay: co-IP
[6] = molecular target: B7; assay: co-IP
[7] = molecular target: B4; assay: co-IP
[8] = molecular target: B6; assay: pull-down
[9] = molecular target: B1; assay: co-IP

Binder: B1
binding result [1]: binds
binding result [2]: binds

Binder: B2
binding result [3]: binds

Binder: B3
stoichiometry N [4]: 2

Binder: B4
binding result [3]: binds

Binder: B5
binding result [5]: binds

Binder: B6
binding result [6]: binds
binding result [7]: binds

Binder: B7
binding result [3]: binds
binding result [8]: binds

Binder: B8
binding result [3]: binds

Binder: B9
binding result [9]: binds
